Biological target: wild-type E. coli ClpX (E. coli) (UniProt P0A6H1)
Sequence of UniProt P0A6H1 (P0A6H1 whole entry): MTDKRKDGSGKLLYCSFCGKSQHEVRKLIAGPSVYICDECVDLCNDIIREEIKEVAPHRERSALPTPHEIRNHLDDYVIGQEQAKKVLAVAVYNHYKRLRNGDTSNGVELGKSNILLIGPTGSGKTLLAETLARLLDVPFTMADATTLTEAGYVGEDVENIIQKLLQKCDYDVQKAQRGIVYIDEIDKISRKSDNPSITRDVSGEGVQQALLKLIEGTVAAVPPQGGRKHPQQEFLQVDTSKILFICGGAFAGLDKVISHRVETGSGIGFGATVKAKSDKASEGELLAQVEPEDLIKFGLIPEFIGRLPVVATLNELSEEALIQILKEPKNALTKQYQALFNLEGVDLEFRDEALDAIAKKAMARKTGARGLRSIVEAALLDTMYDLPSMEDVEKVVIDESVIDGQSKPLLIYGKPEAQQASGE

rate of decapeptide cleavage by ClpP with ClpX•ATPγS, against ClpP alone: 9 fold
Substance: wild-type E. coli ClpP with a C-terminal His6 tag (from UniProt P0A6G7 15-207) (enzyme)

— PMC2885556
